Experiment: label from the status in PepcDB records
With “MEKILLERNWQDLEKLVLVSSKKAIRTLVNRIYIKDGLGFWRAVEALGVASALAEEQKKDSSVELVRRYFWSLNEESGGNAWNAAEAIGSIMASNPKECGHFNWMLANLLEDESLQEGTLWGLLNLSINAPEVVDPLVERVYPFLEARDVNQRGLAVWIFSLMKACPSAKERWEIEEELHKTLIQDQEMAEIYWEGEYYHFPVSELLGKEIVTFYAREYKQADFTWNISVASSQKGLCWVGLGTPEKEEGELRTWVQKRVPGSLVIPRALPNQKVMEQLEDYFSGIRQEFNLPLDPRGTDFQLKVWEELCRIPYGETRSYGEIAQNIGNPKGQRAVGLANNKNPIAIIIPCHRVVGKKGDLVGYASGLDHKVRLLNWEAAHRHQ” the protein production was “failed”.
For “MEKKFLDILVCPVTKGRLEYHQDKQELWSRQAKLAYPIKDGIPYMLENEARALSEEELKALEHHHHHH”, the protein production was “not failed”.
For “MEKLSAREKPDINVAEAWEQYWNKTLVNATPVLWDANVERAVVVDLPRFQSFFDTELPLIDFACGNGTQTKFLSQFFPRVIGFDVSKTALEMASKENTAANISYRLLDGLVPEQAAQIHSEIGDANIYMRTGFHHIPVEKRELLAQSLRTLLGKQGVMYLIELGTGCIEFFNSLLEKYGKLPYELSLVMEHGIRPGIFTTEDIELYFPDFEILSQGESLFQSIHKLPDGNYATPPAFWAVIKRH”, the protein production was “failed”.
For “MEKNRRGIQSVELGSRVLQALAQFGRPAGLTELAQECDMPPGKVHPYLVSFMKVGFVARDPASGLYELGHLALELGLAKLHRLDPVREASQAIADLAAETGHGTGLVVWGNLGPTLIRLEEPAHPLHVNLRIGTVMSLVHTATGRLFAAYLPAKVVSRVLEADPMGVHFGSRHQSRPAQEDYERQLSEIRSRGISRTLGSPIPGIDAFCAPVFDSMGHIAAGLLVMGPSATFDSDWDGQIATRLHACANDISRKLGYIDTPASPRAAR”, the protein production was “failed”.
For “MEKNVTPMIRQYLDIKKKYKDAVLFFRVGSFYEMFFDDAIEVSKLLNLTLTKRENVPMCGVPYHTSKEYIRKLILFDKKVAICEQASNSTSGGPLEREVVEVITPGVIIDEDFLNDDINNYLVAISDYKDYYSFSYIDLSTSSLGIMFYENGFFEKLKRDLEKYSPKEIIVSENFYYEYSEKLNLSRFLINRVPTWHLDKDIAIKTIKEHFNILGLSSLGFDEEKPYYISIFLIINHIKNNLKNLLSNIDKIDINNDSSYMFLDDVTQVNLELVKNNNDFSSQYSLYSVLNDCKTAMGKRLLREFILNPILNISEINTRLDHVEFFCKNISLTVTLRETFINIWDIERIISRIQMKRYIKKDFLFIEKALSVFFTVKKLFDKHNFDYWNFDKFEEDSISKVYFLINSAISSAPDELIKRGYDLKLDNLKDLKINANKYIDQYLESERLLSKINNLKIRKTNNRGLFFEVTKSNYAQVPPHFMESQALNSSKRYKTEKLISLEVDINNAEDNVVAFEQEIFDEIASNVVMHNKVLKKVAEFFAYIDLVVNFGYLAKKNEYKRPVLTSGKEILLEKSRHPVVEHYTKNTEIFTENFVRINKEKYFCLITGPNMAGKSTYLRQVALITLMAHIGSFVPASKALIGITDKIFCRIGASDNIAKGESTFLVEMNETANILRNATEKSLIIMDEVGRGTSTNDGLAIAYSIIEYILEYIKARSLFATHFHELSSINHQAFINLSMKIEKQGNDLVFLREVEEKPSLNSYGIYVARIAGLPLRVIDRANVILESLVGREGNSCLEFLPHVSSDGNDKEILKNDTDIHIKLNEYLELKNFISNIDINNITPFQSIELLNQIVLKVISQSS”, the protein production was “failed”.
With “MEKRLDYITDLMALGPTANARTIQRRQTAHRLAIAEAWQVKPGEKILEIGCGQGDLSAVLADQVGSSGHVTGIDIASPDYGAPLTLGQAWNHLLAGPLGDRLTVHFNTNLSDDLGPIADQHFDRVVLAHSLWYFASANALALLFKNMAAVCDHVDVAEWSMQPTALDQIGHLQAAMIQGLLYAIAPSDVANIRTLITPDTLAQIAHDNTWTYTAGTIVEDPTLDDAHWEIATTNALLTELKLSTDLRDRVKPLLEAMSHNGTASLATFTGRITF” the protein production was “not failed”.
For “MEKRQDNNEIERRILKYEQYVKEHPKKAYGYYCLGRLHMMDGKYKLAEEYFKKSLAVDGNYTFSIIGLIEACVFRRKFLKAVYLFSKNRQKIIDKYIYRVKLVRGVSSFYSKSGFFRTEAKDFLSQLSLKNSIRSIKKLVDSEANNIVLKLILCMYYLNFGEKSFYIIQLFKTCIYWDGLEDSFRWALIRRLSEFGEKLYYDANIARKFATVPDASCTDEYVDLIFSSALDREKGGRMADIYRTAEKYNKNISPRLIWRYVKWSNENSFYDPSVYDCCKKLVDMGWMDSVVADTMLKFRERNAVKLGDETERALRLFGYMD”, the protein production was “failed”.
With “MEKSLETVPGLDLSGEDIEMYYQYVRFVDRFLRFNRNYQIEYFKLSYPGDGSSEREVDLLKRWIDTVIQLKVKDLDFFDYSWEWGFDNFQLPSTIYICESLVSLKLSTVTLPSVKSVSLPFLRVLKLGAVKFADHLDLETLISGCTALETLAIRFFDRVQVLQVSSQSLLSFTHVAPKLVFTHAVRKPLAEKDLSIVIDAPRLEYLKLSDHQTSSFIIKNPGSLVAVDIDINLSSGFDSRNMIRDFLVGISSVKNMTISSIILKFYDYRFKMLPTFLEICPNLKSLILKSTEELGIKESSMFSGPQDFLPSLEYVEMKMPLKKGLLLEIRMLVGYFLEKATILKKLTLCLDDYRKRKESLIPRILAIPRISTSCEVVVL” the protein production was “failed”.
In the case of “MEKSLLVIVRHKPGRTRLLIRALQSINDQTFKKINIIIFCMEEELKCHNVDDFYLKELSNIYSVIYDENCIFNAIKMSESNYLCFMDDDDSWAPEYVSRLLSVLANIQSTYSSVNAIACHTNKVAEIAENNRIIINSTQPWNHYLNAGPVSFDVIYYRNSIPLSSCLFDRNSVIDVIESHKLSSPAFFWPFFIHYLAENDVWILPEALAFYHFRENDDFEFGNYTVINNELFDIECKIAENKMMRSIDDSSLLNVLLSNIANNSLFHKISYIENKIK”, the protein production was “failed”.
In the case of “MEKSNLYKVDEFGVKNYNYGILAILSFVLFAFINISLGYVTFVAETAVEGSPVKNYADAFWLMLMSSTTIGFGDVYPITLEGRIAVFTMFILGVGILGGVGAVFANKIFGFADTNIKNRELRQQNEEILLQNDKIYQKLTALEDKLEAFNRETK”, the protein production was “failed”.
For “MEKSNVFLLSILLMASLFSISHAFQLWGYAIDRVSIRGVVYCSLDGDPSAPPVSNATVYIECPGGSNSTLAQAVTNQVGVFTLPWLMFIANYAIGASRQ”, the protein production was “failed”.
For “MEKVHLYWNLRYNCWFLVSVEHLWYSQGKVPGVHGFVILPVFLTLLEQPFSTTKKDITQLRSPSSESLSSSNAVNYRAIRGSHSYFGIYGI”, the protein production was “failed”.
In the case of “MEKVLTDLDRVNIAKQEYELGSQLDTLVKIMSQDKVLPIGKVAHVQDGGKETGEQIYTITPNGTLDKPEDVKEVTVLFKGSTAPFGGDDWKTDWFKNDIPIASKLLLKKFGSQSVSHKQGTKQLEQSAHLLKEVMNKYPNAKISVYGHSLGSMNAQYAIAELDDNQIYRVQGAWIYNGPNLYSILTDKQKEQVDKIKGVVNNYVDSKDKIGIGYPKEGSDNAVGIVKIVDSKAVSGGSWVANFTNQHIWGGYQYNPDGSLKLAEDKFAYKENYSVVHTNVNQRMHAIKAKLSSFKSTGKEVSKNQAIFLDSQQAKVISSGLVTISKEAVEEVKKVEQKAVAKAEELYQSLKVAPTGVTELSPQELEEAYAQSGVSYASIVGEAQTFFSNKTQAAESISHAYVELENQINKGVEAMLRQDSNLSGEFKQWH”, the protein production was “failed”.
With “MEKVTLIATATMGLEALVAREVKDLGYEDVKVENGKVTFTSDVAAIPRANLWLRTADRVKLKVGEFKALTFDELFEKTKSLPWADIIPVHAEFPVIGRSVKSKLFSVSDCQAIVKKAVVESMKKRYKRGWFDENGPLYRIEVALHKDIATLTIDTSGTGLHKRGYRYLHSQAPLKETLAAAIIMLSHWKSDRPFADPFCGSGTIPIEAAMIGQNIAPGFNREFVSEQWHWIGSEHWDRAREEVEDMANYDQPLDILGSDIDHRMVELAQNNAMEAGFGDLISFKQMQVTDFRHKEEYGILIGNPPYGERIGEREEVEKMYQKMGEVFREHLETWSIYILTSHEGFEELYGKRATKKRKLYNGNIKTDYYQFFGPRPPRHPEGSQQ” the protein production was “failed”.
In the case of “MEKYSQVIFDKNTVEFVTVAAEFCGFLERARDMKRYDFVDTALKILPLLYLKATLLPPCEPIGEDEPETFVTEEDYELIRRAIAGVLGAKDDYLEVFLPDMVYSDTPIKKCISEDLADIYQDLKDFISVFQLGLNETMNDSLVVCKEHFREFWGQRLVNTMRALHDVKYSPLEHHHHHH”, the protein production was “not failed”.
For “MELGLYTFADVNPNPADGRGPEGARRLRELLEEIELADQVGLDVFGLGEHHRPDYVVSSPSTVLAAAAVKTKNIRLTSAVSVLSSDDPVRVFQQFSTVDLLSNGRAEIMAGRGSFIESYPLFGYDLEDYDVLFAEKLDLLLALREQEVVTWSGTKHPAINGRGVYPRPLQERLPVWIAVGGTPQSVARAGAMGLPVALAIIGGEYRRFAPLFDLYHEAARRAGQEKTKLRTSINVHGFIADTTDKAADQFYGPQAEVMNRIGRERGWGPTNRAHFDAARGPEGNLFLGEPELVAEKIIKAHGVFKNDRFLLQMAIGLMPHDQIMRGIELYGTKVAPLVRKELTGSADPVKATA”, the protein production was “not failed”.
In the case of “MELKQSLSTHLEAEKPLRRYGAVEETAWKTERLGRNQLDIISMAETTMMPEEIELEMAKIQRLREVLVRRESELRFMMDDIQLCKDIMDLKQELQNLVAIPEKEKTKLQKQREDELIQKIHKLVQKRDFLVDDAEVERLREQEEDKEMADFLRIKLKPLDKVTKSPASSRAEKKAEPPPSKPTVAKTGLALIKDCCGATQCNIM”, the protein production was “failed”.
For “MELPEKPQLYLITPPEFELSSFPDVLARVLDTHKVACVRLELAARDEDTVSRAADALREVTHARDIALVLSDHSVLADRLGLDGVHLSDAARSVRETRKLLGEDAIIGSFCGTSRHDGMSAGEAGADYICFGPVAASSLGDGSYVAQEVFEWWSEFIEVPVVAEGGLDAARIAQLTPFTDFFAFGQEVWSAEYPAQRLGELLEAMG”, the protein production was “failed”.
In the case of “MELPVVVQQALGDNAPGVSFRSVSQIDTGHLLRMVLLSDDQGNLQAICRRNDMLDLEALNKRLGRDLRMMQRREQVRVRQKAGLQELPALPSLTGWPTVVDRRVDELEAVALELGEQDLGLMMPAEDFRQLTAKAARHDFAVDTANISVNLDNHAADRDQLHSAIKRFTGLRIQQRLEDTLELPPLPETAQRIIHLRVNPNAVMGDLVDVVESDPSLAAQVVSWASSSFYAAAGRVHSVHDAVSRVLGFDLVMNLAMGLALGRALKHPQDHPDGYVDYWQQAIWQAQSAGILASMMPRGQRPLFGLAYLAGLLHNFGHLVLAQVFPPHFKLVCRSLEVSPHIDSSVIEHYLLGITREQIAAQLMENWGMPDEVTLAIRYQKNPAYDGPHNVYARLLWLGRQLLTERGVALGAGESATQAVYDELGLDRELVQEQFDELVRRKDSIMAMAGMMSQGG”, the protein production was “not failed”.
For “MELQLAIDLLNKEEAAKLAQKVEEYVDIVEIGTPIVINEGLPAVQHLNENINNAKVLADLKIMDAADYEVSQAVKYGADIVTILGVAEDASIKAAVEEAHKHGKALLVDMIAVQNLEQRAKELDEMGADYIAVHTGYDLQAEGKSPLDSLRTVKSVIKNSKVAVAGGIKPDTIKDIVAEDPDLVIVGGGIANADDPVEAAKQCRVAIEGK”, the protein production was “failed”.

Source: a protein production outcome set (Wang et al. 2014)
